Data from paper PMC4081050.

Substrate: O=C(O)[C@@H](O)[C@H](O)[C@H](O)[C@@H](O)C(=O)O
Test: purified protein
Conditions: dehydration, 20 mM HEPES pH 7.9, 5 mM MgCl2, 1 μM enzyme

B1: A9CG74 (GalrD-III) (Agrobacterium fabrum str. C58) (protein)
chain: MKIDRMRVFVTRDKDRPRVIVALDTDDGMTGWGECYNHGPDLALPPVLDYLYNFLAGQDPTRVEFLYNLMLQQNRFPPGALGLSAISALDHCLWDLAAKAVGVPVYKLLGGEVRNRIKVYAGVYTAPDAPAARDEFDRLNEGWGFSAFKLSPWRVDIHAHRWGEVVRSSAEYFRTLRETVRADYDIAFDAHAKIFEPSAARQLGNALAPYDPLFYEEPLRPENIEMYGDLKQGLNCTLATGESLYNRNEFLRLLQVKGADIIQPDICVVGGISEMRRIATLAEAHFVSIAPHNPMGPLATAVNVHFCAVQQNFRILEYRLPKGQVYAYGGNDLVKEEDVTRYVVDPYLPRDGYLELRPDRPGWGVEMDEKAMQEDGYVHWQRRVPKRPDGSYAFA
Km: 80 ± 30 µM | kcat: 0.12 ± 0.05 s⁻¹ | kcat/Km: 1500 M⁻¹ s⁻¹
